Experimental data reported in patent US20230093239 (published 2023).

Assays:
alpha-thrombin [1] = biological target: T1, alpha-thrombin (Homo sapiens, UniProt P00734;P00734 P00734:328-363,P00734:364-622); assay: membrane-type surface stress sensor; voltage difference vs poly T control; 240 nM thrombin in PBS
alpha-thrombin [2] = biological target: T1, alpha-thrombin; assay: negative control on membrane-type surface stress sensor, used as reference for voltage difference; 240 nM thrombin in PBS

## GGTTGGTGTGGTTGGTTTTT (ssDNA) [thrombin aptamer (15-mer with T5 tail)]
alpha-thrombin [1]
  binding result: binds

## TTTTTTTTTTTTTTTTTTTT (ssDNA) [poly T control]
alpha-thrombin [2]
  binding result: no binding
